Numbering of substitutions follows the chain as printed. Names and notes keep the numbering of the source.

To fix the notation:
B1: FIXa-K247N/N249S/R338E/R403E/E410N (protein)
chain 1: YNSGKLEEFVQGNLERECMEEKCSFEEAREVFENTERTTEFWKQYVDGDQCESNPCLNGGSCKDDINSYECWCPFGFEGKNCELDVTCNIKNGRCEQFCKNSADNKVVCSCTEGYRLAENQKSCEPAVPFPCGRVSVSQTSKLTR
chain 2: VVGGEDAKPGQFPWQVVLNGKVDAFCGGSIVNEKWIVTAAHCVETGVKITVVAGEHNIEETEHTEQNRSVIRIIPHHNYNAAINKYNHDIALLELDEPLVLNSYVTPICIADKEYTNIFLKFGSGYVSGWGRVFHKGRSALVLQYLRVPLVDRATCLESTKFTIYNNMFCAGFHEGGRDSCQGDSGGPHVTEVEGTSFLTGIISWGEECAMKGKYGIYTKVSEYVNWIKNKTKLT
B2: FIXa-Y155F/R318Y/R338E/T343R/E410N (protein)
chain 1: B1 chain 1
chain 2: B1 chain 2 with N67K, S69N, R138Y, T163R, E223R
B3: FIXa R318Y/R338E/T343R/N346Y/R403E/E410N (protein)
chain 1: B1 chain 1
chain 2: B1 chain 2 with N67K, S69N, R138Y, T163R, N166Y
B4: FIXa-R318Y/T343R/R403E/E410N (protein)
chain 1: B1 chain 1
chain 2: B1 chain 2 with N67K, S69N, R138Y, E158R, T163R
B5: FIXa Y155F/K228N/K247N/N249S/R318Y/R338E/R403E/E410N (protein)
chain 1: B1 chain 1
chain 2: B1 chain 2 with K48N, R138Y
B6: FIXa R318Y/R338E/T343R/N346D/R403E/E410N (protein)
chain 1: B1 chain 1
chain 2: B1 chain 2 with N67K, S69N, R138Y, T163R, N166D
B7: FIXa N260S/R318Y/R338E/R403E/E410N (protein)
chain 1: B1 chain 1
chain 2: B1 chain 2 with N67K, S69N, N80S, R138Y
B8: FIXa D104N/K106S/N260S/R318Y/R338E/R403E/E410N (protein)
chain 1: B1 chain 1 with D104N, K106S
chain 2: B1 chain 2 with N67K, S69N, N80S, R138Y
B9: FIXa-Y155F/R318Y/R338E/T343R/R403E (protein)
chain 1: B1 chain 1
chain 2: B1 chain 2 with N67K, S69N, R138Y, T163R, N230E
B10: FIXa Y155F/N260S/R318Y/R338E/R403E/E410N (protein)
chain 1: B1 chain 1
chain 2: B1 chain 2 with N67K, S69N, N80S, R138Y
B11: FIXa Y155F/R318Y/R338E/N346D/R403E/E410N (protein)
chain 1: B1 chain 1
chain 2: B1 chain 2 with N67K, S69N, R138Y, N166D
B12: FIXa K293E/R338E/R403E (protein)
chain 1: B1 chain 1
chain 2: B1 chain 2 with N67K, S69N, K113E, N230E
B13: FIXa R318Y/R338E/E410N/T412V (protein)
chain 1: B1 chain 1
chain 2: B1 chain 2 with N67K, S69N, R138Y, E223R, T232V
B14: FIXa-R338E/T343R/R403E/E410N (protein)
chain 1: B1 chain 1
chain 2: B1 chain 2 with N67K, S69N, T163R
B15: FIXa D104N/K106S/R318Y/R338E/T343R/R403E/E410N (protein)
chain 1: B1 chain 1 with D104N, K106S
chain 2: B1 chain 2 with N67K, S69N, R138Y, T163R
B16: FIXa R318Y/R338E/R403E/E410N/T412V (protein)
chain 1: B1 chain 1
chain 2: B1 chain 2 with N67K, S69N, R138Y, T232V
B17: FIXa-Y155F/R318Y/T343R/R403E/E410N (protein)
chain 1: B1 chain 1
chain 2: B1 chain 2 with N67K, S69N, R138Y, E158R, T163R
B18: FIXa R318Y/R338E/R403E/E410N/T412A (protein)
chain 1: B1 chain 1
chain 2: B1 chain 2 with N67K, S69N, R138Y, T232A
B19: FIXa D104N/K106S/Y155F/K247N/N249S/N260S (protein)
chain 1: B1 chain 1 with D104N, K106S
chain 2: B1 chain 2 with N80S, E158R, E223R, N230E
B20: FIXa Y155F/K247N/N249S/N260S/R318Y/R338E/R403E/E410N (protein)
chain 1: B1 chain 1
chain 2: B1 chain 2 with N80S, R138Y
B21: FIXa D104N/K106S/K247N/N249S/N260S (protein)
chain 1: B1 chain 1 with D104N, K106S
chain 2: B1 chain 2 with N80S, E158R, E223R, N230E
B22: FIXa Y155F/K247N/N249S/N260S (protein)
chain 1: B1 chain 1
chain 2: B1 chain 2 with N80S, E158R, E223R, N230E
B23: FIXa K247N/N249S/N260S/R318Y/R338E/R403E/E410N (protein)
chain 1: B1 chain 1
chain 2: B1 chain 2 with N80S, R138Y
B24: FIXa R318Y/R338E/T412A (protein)
chain 1: B1 chain 1
chain 2: B1 chain 2 with N67K, S69N, R138Y, E223R, N230E, T232A
B25: FIXa-R318Y/R338E/T343R/R403E (protein)
chain 1: B1 chain 1
chain 2: B1 chain 2 with N67K, S69N, R138Y, T163R, N230E
B26: FIXa K293A/R338A/R403A (protein)
chain 1: B1 chain 1
chain 2: B1 chain 2 with N67K, S69N, K113A, E158A, E223A, N230E
B27: FIXa R318Y/R338E/N346Y/R403E/E410N (protein)
chain 1: B1 chain 1
chain 2: B1 chain 2 with N67K, S69N, R138Y, N166Y
B28: FIXa R318Y/R338E/R403E/T412A (protein)
chain 1: B1 chain 1
chain 2: B1 chain 2 with N67K, S69N, R138Y, N230E, T232A
B29: FIXa R318Y/R338E/T343R/R403E/E410N (protein)
chain 1: B1 chain 1
chain 2: B1 chain 2 with N67K, S69N, R138Y, T163R
B30: FIXa Y155F/R318Y/R338E/T343R/R403E/E410N (protein)
chain 1: B1 chain 1
chain 2: B1 chain 2 with N67K, S69N, R138Y, T163R

In the data set the target is Factor X, P00742.
Chain of Factor X, P00742 (P00742 whole entry, looked up): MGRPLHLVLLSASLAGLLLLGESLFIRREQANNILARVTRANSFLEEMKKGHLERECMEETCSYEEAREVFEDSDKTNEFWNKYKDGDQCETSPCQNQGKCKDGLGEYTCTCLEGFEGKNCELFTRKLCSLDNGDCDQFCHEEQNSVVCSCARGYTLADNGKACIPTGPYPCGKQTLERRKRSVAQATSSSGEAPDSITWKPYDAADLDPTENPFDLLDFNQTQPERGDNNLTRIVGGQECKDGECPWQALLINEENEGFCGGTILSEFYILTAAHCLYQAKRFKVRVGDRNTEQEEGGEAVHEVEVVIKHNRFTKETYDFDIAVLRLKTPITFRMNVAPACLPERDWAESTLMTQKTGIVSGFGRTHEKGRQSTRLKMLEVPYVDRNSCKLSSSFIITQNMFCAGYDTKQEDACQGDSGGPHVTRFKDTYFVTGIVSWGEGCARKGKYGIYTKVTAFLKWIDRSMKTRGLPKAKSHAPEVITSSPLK
The term kcat denotes the number of substrate molecules converted per active site and unit of time at saturation. A word on the kcat/KM: it is the turnover number divided by the Michaelis constant. For B1, the “% of WT kcat/KM” value came to 422%, the kcat was 4.8 s⁻¹ and the kcat/KM is 1.9e+08 M⁻¹ s⁻¹.
Turning to B2, the “% of WT kcat/KM” value is listed as 794%, the turnover number (kcat) was determined as 9.2 s⁻¹ and the kcat/KM was 3.7e+08 M⁻¹ s⁻¹.
Turning to B3, the “% of WT kcat/KM” value came out at 663%; the KM (FX activation by FIXa in Xase complex with FVIIIa, PC/PS vesicles, Ca2+) came to 0.0158 µM; the catalytic efficiency (kcat/KM) amounted to 3.1e+08 M⁻¹ s⁻¹.
B4: the “% of WT kcat/KM” value came out at 125%, the kcat turned out to be 5.3 s⁻¹ and the kcat/KM is 5.8e+07 M⁻¹ s⁻¹.
With B5, the “% of WT kcat/KM” value stood at 263%; the KM (FX activation by FIXa in Xase complex with FVIIIa, PC/PS vesicles, Ca2+) was determined as 0.0454 µM; the kcat/KM came out at 1.2e+08 M⁻¹ s⁻¹.
Take B6: the “% of WT kcat/KM” value is 177%; the KM (FX activation by FIXa in Xase complex with FVIIIa, PC/PS vesicles, Ca2+) is 0.067 µM; the kcat/KM was found to be 8.2e+07 M⁻¹ s⁻¹.
On to B7, for which the “% of WT kcat/KM” value was 114%; the KM (FX activation by FIXa in Xase complex with FVIIIa, PC/PS vesicles, Ca2+) was determined as 0.0724 µM; the kcat/KM came out at 5.3e+07 M⁻¹ s⁻¹.
Take B8: the “% of WT kcat/KM” value was determined as 190%; the KM (FX activation by FIXa in Xase complex with FVIIIa, PC/PS vesicles, Ca2+) was 0.0611 µM; the kcat/KM came out at 8.8e+07 M⁻¹ s⁻¹.
Take B9: the “% of WT kcat/KM” value turned out to be 563%, the kcat turned out to be 8.2 s⁻¹ and the kcat/KM was found to be 2.6e+08 M⁻¹ s⁻¹.
As to B10, the “% of WT kcat/KM” value was 152%; the KM (FX activation by FIXa in Xase complex with FVIIIa, PC/PS vesicles, Ca2+) was found to be 0.0839 µM; the kcat/KM stood at 7e+07 M⁻¹ s⁻¹.
The corresponding values for B11 are 135%, 0.1 µM and 6.2e+07 M⁻¹ s⁻¹.
Turning to B12, the KM of FX activation by FIXa in the Xase complex (FVIIIa, PC/PS vesicles, Ca2+); fluorogenic FXa substrate is 0.05 µM.
With B13, the “% of WT kcat/KM” value was found to be 571%; the KM (FX activation by FIXa in Xase complex with FVIIIa, PC/PS vesicles, Ca2+) stood at 0.0236 µM; the kcat/KM came to 2.6e+08 M⁻¹ s⁻¹.
With B14, the “% of WT kcat/KM” value is reported as 650%, the kcat is 9.8 s⁻¹ and the kcat/KM worked out at 3e+08 M⁻¹ s⁻¹.
For the protein B15, the “% of WT kcat/KM” value is 487%; the KM (FX activation by FIXa in Xase complex with FVIIIa, PC/PS vesicles, Ca2+) came out at 0.0266 µM; the kcat/KM was found to be 2.2e+08 M⁻¹ s⁻¹.
The corresponding values for B16 are 342%, 0.0483 µM and 1.6e+08 M⁻¹ s⁻¹.
As to B17, the “% of WT kcat/KM” value was 571%, the kcat was 8.8 s⁻¹ and the kcat/KM is 2.6e+08 M⁻¹ s⁻¹.
For B18, the “% of WT kcat/KM” value was found to be 538%; the KM (FX activation by FIXa in Xase complex with FVIIIa, PC/PS vesicles, Ca2+) was found to be 0.0344 µM; the kcat/KM was 2.5e+08 M⁻¹ s⁻¹.
Take B19: the “% of WT kcat/KM” value is reported as 18%; the KM (FX activation by FIXa in Xase complex with FVIIIa, PC/PS vesicles, Ca2+) was determined as 0.0685 µM; the kcat/KM worked out at 8.2e+06 M⁻¹ s⁻¹.
The corresponding values for B20 are 124%, 0.0954 µM and 5.7e+07 M⁻¹ s⁻¹.
Turning to B21, the “% of WT kcat/KM” value was determined as 21%; the KM (FX activation by FIXa in Xase complex with FVIIIa, PC/PS vesicles, Ca2+) was 0.0612 µM; the kcat/KM came to 9.8e+06 M⁻¹ s⁻¹.
Regarding B22, the “% of WT kcat/KM” value is 42%; the KM (FX activation by FIXa in Xase complex with FVIIIa, PC/PS vesicles, Ca2+) came out at 0.0965 µM; the kcat/KM stood at 1.9e+07 M⁻¹ s⁻¹.
The corresponding values for B23 are 145%, 0.0474 µM and 6.7e+07 M⁻¹ s⁻¹.
The corresponding values for B24 are 642%, 0.0235 µM and 3e+08 M⁻¹ s⁻¹.
As for B25, the “% of WT kcat/KM” value is 357%, the kcat turned out to be 6.7 s⁻¹ and the kcat/KM turned out to be 1.6e+08 M⁻¹ s⁻¹.
On to B26, for which the KM of FX activation by FIXa in the Xase complex (FVIIIa, PC/PS vesicles, Ca2+); fluorogenic FXa substrate came to 0.0654 µM.
For the protein B27, the “% of WT kcat/KM” value stood at 270%; the KM (FX activation by FIXa in Xase complex with FVIIIa, PC/PS vesicles, Ca2+) came to 0.0281 µM; the kcat/KM worked out at 1.2e+08 M⁻¹ s⁻¹.
The corresponding values for B28 are 173%, 0.0675 µM and 8e+07 M⁻¹ s⁻¹.
The corresponding values for B29 are 907%, 0.0247 µM and 4.2e+08 M⁻¹ s⁻¹.
Regarding B30, the “% of WT kcat/KM” value came out at 640%; the KM (FX activation by FIXa in Xase complex with FVIIIa, PC/PS vesicles, Ca2+) was 0.0272 µM; the kcat/KM is 3e+08 M⁻¹ s⁻¹.

Source of the values: patent US20210238260.
